To fix the notation:
B1: recombinant mouse 12A11 Cγ2a (isotype-switched 12A11) (antibody, V domains shown)
VH: QVTLKESGPGILKPSQTLSLTCSFSGFSLSTSGMSVGWIRQPSGKGLEWLAHIWWDDDKYYNPSLKSRLTISKDTSRNQVFLKITSVDTADTATYYCARRTTTADYFAYWGQGTTLTVSS
VL: DVLMTQTPLSLPVSLGDQASISCRSSQSIVHSNGNTYLEWYLQKPGQSPKLLIYKVSNRFSGVPDRFSGSGSGTDFTLKISRVEAEDLGIYYCFQSSHVPLTFGAGTKLELK
modifications: biotin conjugated (in the ELISA and the competition assay)
notes: also called m12A11Cγ2a; biotin-conjugated m12A11Cγ2a
B2: murine monoclonal antibody 12A11 (isotype IgG1) (antibody, V domains shown)
VH: B1 VH
VL: B1 VL
notes: Mouse IgG1 from the hybridoma; also called mAb 12A11; m12A11
B3: humanized 12A11 antibody, version 6.1 (antibody, V domains shown)
VH: QVQLVESGGGVVQPGRSLRLSCAFSGFTLSTSGMSVGWIRQAPGKGLEWVAHIWWDDDKYYNPSLKSRFTISKDTSKNTVYLQMNSLRAEDTAVYYCARRTTTADYFAYWGQGTTVTVSS
VL: DVVMTQSPLSLPVTPGEPASISCRSSQSIVHSNGNTYLEWYLQKPGQSPQLLIYKVSNRFSGVPDRFSGSGSGTDFTLKISRVEAEDVGVYYCFQSSHVPLTFGQGTKLEIK
notes: Variable regions only; also called h12A11v6.1; バージョン6.1
B4: humanized 12A11 antibody, version 5.3 (antibody, V domains shown)
VH: B3 VH with V50L, F69L, V80L
VL: B3 VL
notes: Variable regions only; also called h12A11v5.3; バージョン5.3
B5: humanized 12A11 antibody, version 5.4 (antibody, V domains shown)
VH: B3 VH with T28S
VL: B3 VL
notes: Variable regions only; also called h12A11v5.4; バージョン5.4
B6: humanized 12A11 antibody, version 5.5 (antibody, V domains shown)
VH: B3 VH with T28S, F69L, V80L
VL: B3 VL
notes: Variable regions only; also called h12A11v5.5; バージョン5.5
B7: humanized 12A11 antibody, version 6.4 (antibody, V domains shown)
VH: B3 VH with T28S, V80L
VL: B3 VL
notes: Variable regions only; also called h12A11v6.4; バージョン6.4
B8: humanized 12A11 antibody, version 5.2 (antibody, V domains shown)
VH: B3 VH with V50L
VL: B3 VL
notes: Variable regions only; also called h12A11v5.2; バージョン5.2
B9: humanized 12A11 antibody, version 3 (antibody, V domains shown)
VH: B3 VH with K73R, T75N, V80L
VL: B3 VL
notes: Variable regions only; tested in conditioned medium of COS cells; also called h12A11v3; v3
B10: humanized 12A11 antibody, version 6.3 (antibody, V domains shown)
VH: B3 VH with V50L, V80L
VL: B3 VL
notes: Variable regions only; also called h12A11v6.3; バージョン6.3
B11: humanized 12A11 antibody, version 2.1 (antibody, V domains shown)
VH: B3 VH with T75N, V80L
VL: B3 VL
notes: Variable regions only; tested in conditioned medium of COS cells; also called h12A11v2.1; v2.1
B12: humanized 12A11 antibody, version 5.1 (antibody, V domains shown)
VH: B3 VH with F69L
VL: B3 VL
notes: Variable regions only; also called h12A11v5.1; バージョン5.1
B13: humanized 12A11 antibody, version 6.2 (antibody, V domains shown)
VH: B3 VH with F69L, V80L
VL: B3 VL
notes: Variable regions only; also called h12A11v6.2; バージョン6.2
B14: humanized 12A11 antibody, version 5.6 (antibody, V domains shown)
VH: B3 VH with T28S, V50L, V80L
VL: B3 VL
notes: Variable regions only; also called h12A11v5.6; バージョン5.6

Residue numbers refer to the chain shown, from its start.

The source of these data is patent publication JP2012050437A (dated 2012).

One assay addresses T1, aggregated synthetic Aβ1-42 (human, UniProt P05067 672-713).
T1 construct: domain: Aβ1-42; Synthetic peptide, aggregated, coated for ELISA; also called 凝集Aβ1−42; Aβ(1-42) aggregate
The assay is described as follows: ELISA on aggregated Aβ1-42, streptavidin-HRP as reporter; confirmed (sentence runs on into paragraph 399). (In general: An ELISA detects its analyte on a solid surface through an enzyme-linked reagent.)
As for B1, the binding result is “binds”.

Another assay addresses T1, aggregated synthetic Aβ1-42. The assay is described as follows: ELISA on aggregated synthetic Aβ1-42.
Take B2: the binding result is “binds”.

The target is the same in another assay. The assay is described as follows: quantitative Aβ(1-42) aggregate binding assay, COS conditioned medium.
Consider B3, for which the binding result is listed as “binds”.

With B4, the binding result is recorded as “binds”.

B5: the binding result is recorded as “binds”.

As for B6, the binding result is listed as “binds”.

On to B7, for which the binding result is “binds”.

Regarding B8, the binding result is recorded as “binds”.

Turning to B9, the binding result was “binds”.

Regarding B10, the binding result was “binds”.

For the molecule B11, the binding result is “binds”.

As for B12, the binding result was “binds”.

As to B13, the binding result was “binds”.

In the case of B14, the binding result was “binds”.
